Numbering of substitutions follows the chain as printed. Numbers in names are those of the source.
T1: Soluble human BCMA ECD (AB Biosciences, Catalog no. P011Xp) (human, UniProt Q02223 1-54)
T1 sequence: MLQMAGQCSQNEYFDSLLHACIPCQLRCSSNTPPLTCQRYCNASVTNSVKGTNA

T2: Recombinant mouse BCMA-Fc fusion protein (R&D Systems catalog #593-BC-050) (mouse, UniProt O88472 1-49)
T2 construct: also called mBCMA-Fc; Fc-fusion mouse BCMA; not shown: Fc part of the bought fusion protein
T2 chain: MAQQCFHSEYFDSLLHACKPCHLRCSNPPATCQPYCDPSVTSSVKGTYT

T3: Recombinant human BCMA-Fc fusion protein (R&D Systems catalog #193-BC-050) (human, UniProt Q02223 1-54)
T3 construct: also called hBCMA-Fc; Fc-BCMA Hu; not shown: Fc part of the bought fusion protein
T3 sequence: T1 sequence

T4: monomeric human BCMA (human, UniProt Q02223 1-54, limits assumed)
T4 construct: also called monomeric BCMA antigen
T4 sequence: T1 sequence

B1: BCMB72 (BCMA×CD3 bispecific antibody, BCMB69 × CD3B219) (bispecific antibody, human IgG4 S228P, lambda, F234A L235A)
heavy 1: EVQLVESGGGLVQPGGSLRLSCAASGFTFNTYAMNWVRQAPGKGLEWVARIRSKYNNYATYYAASVKGRFTISRDDSKNSLYLQMNSLKTEDTAVYYCARHGNFGNSYVSWFAYWGQGTLVTVSSASTKGPSVFPLAPCSRSTSESTAALGCLVKDYFPEPVTVSWNSGALTSGVHTFPAVLQSSGLYSLSSVVTVPSSSLGTKTYTCNVDHKPSNTKVDKRVESKYGPPCPPCPAPEAAGGPSVFLFPPKPKDTLMISRTPEVTCVVVDVSQEDPEVQFNWYVDGVEVHNAKTKPREEQFNSTYRVVSVLTVLHQDWLNGKEYKCKVSNKGLPSSIEKTISKAKGQPREPQVYTLPPSQEEMTKNQVSLTCLVKGFYPSDIAVEWESNGQPENNYKTTPPVLDSDGSFLLYSKLTVDKSRWQEGNVFSCSVMHEALHNHYTQKSLSLSLGK
light 1: QTVVTQEPSLTVSPGGTVTLTCRSSTGAVTTSNYANWVQQKPGQAPRGLIGGTNKRAPGTPARFSGSLLGGKAALTLSGVQPEDEAEYYCALWYSNLWVFGGGTKLTVLGQPKAAPSVTLFPPSSEELQANKATLVCLISDFYPGAVTVAWKADSSPVKAGVETTTPSKQSNNKYAASSYLSLTPEQWKSHRSYSCQVTHEGSTVEKTVAPTECS
heavy 2: not shown
light 2: SYVLTQPPSVSVAPGQTARITCGGNNIGSKSVHWYQQPPGQAPVVVVYDDSDRPSGIPERFSGSNSGNTATLTISRVEAGDEAVYYCQVWDSSSDHVVFGGGTKLTVLGQPKAAPSVTLFPPSSEELQANKATLVCLISDFYPGAVTVAWKGDSSPVKAGVETTTPSKQSNNKYAASSYLSLTPEQWKSHRSYSCQVTHEGSTVEKTVAPTECS
notes: IgG4 made by Fab arm exchange; first heavy/light pair is the CD3B219 arm, second pair the BCMB69 arm; also called B69 × B219; BCMB72.004
B2: BC3B11 (BCMA×CD3 bispecific antibody, BCMB176 × CD3B219) (bispecific antibody, human IgG4 S228P, lambda, F234A L235A)
heavy 1: B1 heavy 1
light 1: B1 light 1
heavy 2: not shown
light 2: B1 light 2 with G152A
notes: IgG4 made by Fab arm exchange; also called B176 × B219
B3: BC3B9 (BCMA×CD3 bispecific antibody, BCMB128 × CD3B219) (bispecific antibody, human IgG4 S228P, lambda, F234A L235A)
heavy 1: B1 heavy 1
light 1: B1 light 1
heavy 2: not shown
light 2: B1 light 2 with G152A
notes: IgG4 made by Fab arm exchange; also called B128 × B219
B4: BC3B12 (BCMA×CD3 bispecific antibody, BCMB177 × CD3B219) (bispecific antibody, human IgG4 S228P, lambda, F234A L235A)
heavy 1: B1 heavy 1
light 1: B1 light 1
heavy 2: not shown
light 2: B1 light 2 with G152A
notes: IgG4 made by Fab arm exchange; also called B177 × B219
B5: BC3B7 (BCMA×CD3 bispecific antibody, BCMB117 × CD3B219) (bispecific antibody, human IgG4 S228P, lambda, F234A L235A)
heavy 1: B1 heavy 1
light 1: B1 light 1
heavy 2: not shown
light 2: B1 light 2 with G152A
notes: also called BC3BY; B117 × B219
B6: BCMB69 (antibody, V domains shown)
VH: QLQLQESGPGLVKPSETLSLTCTVSGGSISSGSYFWGWIRQPPGKGLEWIGSIYYSGITYYNPSLKSRVTISVDTSKNQFSLKLSSVTAADTAVYYCARHDGAVAGLFDYWGQGTLVTVSS
VL: SYVLTQPPSVSVAPGQTARITCGGNNIGSKSVHWYQQPPGQAPVVVVYDDSDRPSGIPERFSGSNSGNTATLTISRVEAGDEAVYYCQVWDSSSDHVVFGGGTKLTVLG
notes: also called BCBM69; antibody derived from the M2 hybridoma
B7: BCMB123 (antibody, human IgG4 S228P, lambda, F234A L235A, V domains shown)
VH: B6 VH with G32S
VL: B6 VL
notes: IgG4 S228P, L234A, L235A; also called BCBM123
B8: BCMB177 (antibody, human IgG4 S228P, lambda, F234A L235A, V domains shown)
VH: B6 VH with G32S, I58R, V104T
VL: B6 VL
notes: IgG4 S228P, L234A, L235A; also called BCBM177

How the values were obtained:
[1] = target: T5, Fc-fusion cyno BCMA (in-house; Cat# BCMW6.001) (cyno, UniProt Q02223 1-54 (human entry)); assay: SPR, Fc-BCMA, two-state model, step 1 (koff1); first step (koff1)
T5 construct: also called Fc-BCMA Cy; cyno Fc-BCMA; not shown: Fc part

[2] = target: T1, Soluble human BCMA ECD (AB Biosciences, …); assay: cell-based or functional assay
[3] = target: T5, Fc-fusion cyno BCMA (in-house; Cat# …); assay: SPR, Fc-BCMA, two-state model, first complex
[4] = target: T5, Fc-fusion cyno BCMA (in-house; Cat# …); assay: SPR (Biacore T200), biotinylated Fc-BCMA Cyno on a streptavidin chip, BCMB72 as analyte, two-state binding model, Final Complex; column RANGE prints 5.36 - 7.27
Method: (§1) The binding affinities of anti-BCMA×CD3 bispecific antibody (BCMB72) with Fc-fusion BCMA proteins (human, cyno and mouse) were measured by Surface Plasmon Resonance (SPR) using a Biacore T200 system (GE Healthcare, NJ).
(§2) No protein was immobilized on flow-cell 1 and was used as a reference surface. Binding kinetics experiments were performed at 25° C. in running buffer (PBS pH 7.4, 0.005% P20, 3 mM EDTA). BCMB72 was prepared in running buffer starting from 100 nM to 0.16 nM at 5-fold dilutions. These solutions were injected for 5 min (association phase) at 50 μL/min and the dissociation was monitored for 15 min by flowing running buffer. The chip surface was regenerated by short injections of glycine (pH 1.5) and running buffer at 100 μL/min. Binding kinetics analysis of BCMB72 interactions with Fc-BCMA was performed by double referencing of the data by subtracting the curves generated by buffer injection from the reference-subtracted curves for analyte injections. Global kinetics fitting of the sensorgrams was performed using a Two-State binding Model using Biacore T200 Evaluation Software (GE Healthcare, NJ). The binding affinity results from the Two-State binding model for different BCMA species are reported as First Complex (KD1) and Final Complex (KD) (FIG. 5).

[5] = target: T5, Fc-fusion cyno BCMA (in-house; Cat# …); assay: SPR, Fc-BCMA, two-state model, step 1 (kon1); first step (kon1)
[6] = target: T5, Fc-fusion cyno BCMA (in-house; Cat# …); assay: SPR (Biacore T200), biotinylated Fc-BCMA on streptavidin chip
Method: as §1, §2

[7] = target: T2, Recombinant mouse BCMA-Fc fusion …; assay: as above
Method: as §1, §2

[8] = target: T5, Fc-fusion cyno BCMA (in-house; Cat# …); assay: SPR, Fc-BCMA, two-state model, step 2
[9] = target: T5, Fc-fusion cyno BCMA (in-house; Cat# …); assay: SPR, Fc-BCMA, two-state model, Final KD; Final complex KD, two-state model
[10] = target: T2, Recombinant mouse BCMA-Fc fusion …; assay: SPR (Biacore T200), biotinylated Fc-BCMA Mouse on a streptavidin chip, BCMB72 as analyte, two-state binding model, Final Complex; column RANGE prints 62.0 - 82.9
Method: as §1, §2

[11] = target: T3, Recombinant human BCMA-Fc fusion …; assay: SPR, Fc-BCMA, two-state model, step 1 (koff1); first step (koff1)
[12] = target: T3, Recombinant human BCMA-Fc fusion …; assay: SPR, Fc-BCMA, two-state model, first complex
[13] = target: T3, Recombinant human BCMA-Fc fusion …; assay: SPR, Fc-BCMA, two-state model, step 1 (kon1); first step (kon1)
[14] = target: T3, Recombinant human BCMA-Fc fusion …; assay: SPR, Fc-BCMA, two-state model, step 2
[15] = target: T3, Recombinant human BCMA-Fc fusion …; assay: SPR, human Fc-BCMA
[16] = target: T3, Recombinant human BCMA-Fc fusion …; assay: SPR, Fc-BCMA, two-state model, Final KD; Final complex KD, two-state model
[17] = target: T5, Fc-fusion cyno BCMA (in-house; Cat# …); assay: SPR, cyno Fc-BCMA
[18] = target: T6, cyno BCMA on HEK cells (cyno, UniProt Q02223 1-184 (human entry)); assay: flow cytometry, HEK cells expressing cyno BCMA
T6 construct: also called HEK-expressing cyno BCMA
T6 sequence (Q02223 other isoform, or with tags, fused parts or gaps): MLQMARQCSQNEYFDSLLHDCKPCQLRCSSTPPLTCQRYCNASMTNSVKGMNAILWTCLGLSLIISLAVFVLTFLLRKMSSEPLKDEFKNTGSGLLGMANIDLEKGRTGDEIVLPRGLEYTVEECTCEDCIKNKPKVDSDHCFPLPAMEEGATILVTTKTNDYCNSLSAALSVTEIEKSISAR

[19] = target: T4, monomeric human BCMA; assay: SPR
[20] = target: T4, monomeric human BCMA; assay: SPR, monomeric human BCMA

Row | Binder | koff [1] [s⁻¹] | KD1 [3] [nM] | kon [5] [M⁻¹ s⁻¹] | koff2 [8] [s⁻¹] | kon2 [8] [s⁻¹] | Kd [9] [nM] | koff [11] [s⁻¹] | KD1 [12] [nM] | kon [13] [M⁻¹ s⁻¹] | koff2 [14] [s⁻¹] | kon2 [14] [s⁻¹] | Kd [16] [nM] | further results
1 | B1 | 0.00483 | 3.87 | 1.26e+06 | 0.000785 | 0.00106 | 1.65 |  |  |  |  |  |  | Change of EC50 of cytotoxicity on H929 cells in the presence of soluble BCMA ECD [2]: 2 fold; Kd [4]: 6.5 nM; fold of average KD compared to human BCMA [6]: ~36 fold; fold of average KD compared to human BCMA [7]: ~402 fold; Kd [10]: 72.4 nM
2 | B2 | 0.00683 | 3.56 | 1.93e+06 | 0.000395 | 0.00147 | 0.75 | 0.00132 | 0.58 | 2.26e+06 | 0.000689 | 0.00252 | 0.12 | fold weaker affinity than BCMB72 [15]: 2 to 3 fold
3 | B3 | 0.00423 | 1.94 | 2.18e+06 | 0.000376 | 0.0016 | 0.37 | 0.00205 | 0.79 | 2.58e+06 | 0.000364 | 0.00506 | 0.05 | fold tighter affinity than BCMB72 [17]: 3 fold
4 | B4 | 0.00831 | 5.65 | 1.48e+06 | 0.000337 | 0.00146 | 1.06 | 0.00129 | 0.72 | 1.78e+06 | 0.000557 | 0.00129 | 0.22 | fold weaker affinity than BCMB72 [15]: 2 to 3 fold
5 | B5 | 0.00417 | 3.04 | 1.38e+06 | 0.000415 | 0.0015 | 0.65 |  |  |  |  |  |  | fold tighter affinity than BCMB72 [17]: 2 fold
6 | B6 |  |  |  |  |  |  |  |  |  |  |  |  | binding result [18]: binds
7 | B7 |  |  |  |  |  |  |  |  |  |  |  |  | fold weaker affinity than BCMB69 [19]: 3 to 15 fold; Kd [20]: 5.12 nM; koff [20]: 0.011 s⁻¹; kon [20]: 2.14e+06 M⁻¹ s⁻¹
8 | B8 |  |  |  |  |  |  |  |  |  |  |  |  | fold weaker affinity than BCMB69 [19]: 3 to 15 fold; Kd [20]: 20.2 nM; koff [20]: 0.0566 s⁻¹; kon [20]: 2.8e+06 M⁻¹ s⁻¹

Source: US20170051068A1 (Janssen / Centocor, published 2017)
